Measurements as given in publication PMC3313952, “Multicopper Oxidase-3 Is a Laccase Associated with the Peritrophic Matrix of Anopheles gambiae” (PLoS ONE, 2012).

Tests used:
Assay in all cases: spectrophotometric product formation, Michaelis-Menten fit
Format in all cases: biochemical, Anopheles gambiae
[1] = substrate: CC(=O)NCCc1ccc(O)c(O)c1; conditions: pH 7.5, 0.1 M sodium phosphate; pH 7.5
Excerpt: (§1) spectrophotometric product formation, Michaelis-Menten fit on AgMCO3

[2] = substrate: Oc1ccc(O)cc1; conditions: pH 6.5, 0.1 M Mes; pH 6.5
Excerpt: as §1

[3] = substrate: N[C@@H](Cc1ccc(O)c(O)c1)C(=O)O; conditions: pH 7.5, 0.1 M sodium phosphate; pH 7.5
Excerpt: as §1

[4] = substrate: Oc1ccccc1O; conditions: pH 7.0, 0.1 M sodium phosphate; pH 7.0
Excerpt: as §1

[5] = substrate: NCCc1ccc(O)c(O)c1; conditions: pH 7.5, 0.1 M sodium phosphate; pH 7.5
Excerpt: as §1

[6] = substrate: CCn1c(=NN=c2sc3cc(S(=O)(=O)O)ccc3n2CC)sc2cc(S(=O)(=O)O)ccc21; conditions: pH 6.0, 0.1 M Mes; pH 6.0
Excerpt: as §1

[7] = substrate: NCCC(=O)NCCc1ccc(O)c(O)c1; conditions: pH 7.0, 0.1 M sodium phosphate; pH 7.0
Excerpt: as §1

B1: AgMCO3 (Anopheles gambiae) (protein)
chain: QSWLNTLLEQSNGTLDVSTFPGEQCLRECDNTQPRICHFSWTMEHYHVMGPACRDCAKGNHTDCYHPACITADGVERGVMSLNRKIPGPTISVCRHDLIVVDITNAMAGTSAAIHWHGLHQRATPYMDGVPFITQCPIGFGNTFRYAFLATEPGTQFYHSHSGHHKVNGHYGALIVREPKRVDPNGDLYHYDTPAHVILGSDWMHIDGEMFMPGLPSAGGIMPINLLINGKGTYHDPKKNETTQTPLEVYTVRRGARFRFRFINAASHVCPLQLQIEDHMMEVIASDSFHLQPRKVDTLVSTSGERYDFVLEANGVKDTYWVRLRSLGPCADLQLEQFAVLRYTTGPFINDAFPTGAPPTYEEPFRNVATANHPNATCGRPEFGDYCITDFQAYDTDEDVINGVPDHQLTFGFYNYPVSFESMFESNRYEHYMNIYGSVMMQGAINNISLAYPPFSLLTQPEKIRDDTFCDEDNRPDSCSDRQLCTCTHRVKINLGDIVELYILDLTPSVNDLNHPFHLHGYQMFVMEMSQDRRVPITLEIAQNIARQRLLSRNTVALPPRKDTVSIPSRGYARVRFRADNPGFWLMHCHYEWHTAVGMALVLQVGETSEMVKAPADFPKCDSYTPAVGHLLQGSL
notes: no tag mentioned; baculovirus / Sf9 host; cDNA identical to EF592176.2 except Leu instead of Pro at residue 15 in signal peptide (probable GenBank error)
Km [1]: 1000 µM | kcat [1]: 2.58 s⁻¹ | kcat/Km [1]: 2580 M⁻¹ s⁻¹ | Km [2]: 5200 µM | kcat [2]: 26.2 s⁻¹ | kcat/Km [2]: 5030 M⁻¹ s⁻¹ | Km [3]: 1400 µM | kcat [3]: 1.55 s⁻¹ | kcat/Km [3]: 1100 M⁻¹ s⁻¹ | Km [4]: 2100 µM | kcat [4]: 5.1 s⁻¹ | kcat/Km [4]: 2430 M⁻¹ s⁻¹ | Km [5]: 1600 µM | kcat [5]: 4.57 s⁻¹ | kcat/Km [5]: 2850 M⁻¹ s⁻¹ | Km [6]: 8500 µM | kcat [6]: 2.6 s⁻¹ | kcat/Km [6]: 300 M⁻¹ s⁻¹ | Km [7]: 2200 µM | kcat [7]: 11.8 s⁻¹ | kcat/Km [7]: 5380 M⁻¹ s⁻¹
